Experimental data as given in US20230065562A1, “DUAL CONTROLS FOR THERAPEUTIC CELL ACTIVATION OR ELIMINATION” (Bellicum Pharmaceuticals, Inc., priority 2015, published 2023).
“Also recorded” adds a separate entry of the source.

System: HEK293T/16 cells
Test: Secreted alkaline phosphatase (SEAP)-based surrogate killing assay of iCasp9 mutants
Format: cell-based, human
Settings: for basal activity: relative SEAP activity Units: no AP1903; for Basal Activity (relative to wild type/unmodified Caspase-9): SEAP assay without AP1903
Procedure: Early passage HEK293T/16 cells (ATCC, Manassas, Va.) were maintained in IMDM, GlutaMAX™ (Life Technologies, Carlsbad, Calif.) supplemented with 10% FBS, 100 U/mL penicillin, and 100 […] until transfection in a humidified, 37° C., 5% CO2/95% air atmosphere. Cells in logarithmic-phase growth were transiently transfected with 800 ng to 2 μg of expression plasmid encoding iCasp9 mutants and 500 ng of an expression plasmid encoding SRα promoter driven SEAP per million cells in 15-mL conical tubes. […] GeneJammer® Transfection Reagent at a ratio of 3 μl per ug of plasmid DNA was used to transiently transfect HEK293T/16 cells in the absence of antibiotics. 100 μl or 2 mL of the transfection mixture was added to each well in 96-well or 6-well plate, respectively.
Briefly, after 65° C. heat denaturation for 45 minutes to reduce background caused by endogenous (and serum-derived) alkaline phosphatases that are sensitive to heat, 5 μl of supernatants was added to 95 μl of PBS and added to 100 μl of substrate buffer, containing 1 μl of 100 mM 4-methylumbelliferyl phosphate (4-MUP; Sigma, St. Louis, Mo.) re-suspended in 2 M diethanolamine. Hydrolysis of 4-MUP by SEAP produces a fluorescent […] with excitation/emission (355/460 nm), which can be easily measured. Assays were performed in black opaque 96-well plates to minimize fluorescence leakage between wells. […] of the mixture was seeded onto each well of a 96-well plate. […] For the assay, 4-methylumbelliferyl phosphate substrate was hydrolyzed by SEAP to 4-methylumbelliferon, a metabolite that can be excited with 364 nm and detected with an emission filter of 448 nm. Since SEAP is used as a marker for cell viability, reduced SEAP reading corresponds with increased iCaspase-9 activities.

Row | Molecule | Basal Activity (relative to wild type/unmodified Caspase-9) | further results
1 | D330A-N405Q: modified iCasp9 double mutant (SEQ ID NO: 28) (protein) GFGDVGALESLRGNADLAYILSMEPCGHCLIINNVNFCRESGLRTRTGSNIDCEKLRRRFSSLHFMVEVKGDLTAKKMVLALLELARQDHGALDCCVVVILSHGCQASHLQFPGAVYGTDGCPVSVEKIVNIFNGTSCPSLGGKPKLFFIQACGGEQKDHGFEVASTSPEDESPGSNPEPDATPFQEGLRTFDQLAAISSLPTPSDIFVSYSTFPGFVSWRDPKSGSWYVETLDDIFEQWAHSEDLQSLLLRVANAVSVKGIYKQMPGCFQFLRKKLFFKTS | intermediate; also recorded: Decreased | basal activity: relative SEAP activity Units (1 μg iCasp9 per million cells): 205772 Units; basal activity: relative SEAP activity Units (2 μg iCasp9 per million cells): 174366 Units; IC50 (AP1903, SEAP screening assay): 50 pM
2 | F404W: modified iCasp9, F404W (protein) VDGFGDVGALESLRGNADLAYILSMEPCGHCLIINNVNFCRESGLRTRTGSNIDCEKLRRRFSSLHFMVEVKGDLTAKKMVLALLELARQDHGALDCCVVVILSHGCQASHLQFPGAVYGTDGCPVSVEKIVNIFNGTSCPSLGGKPKLFFIQACGGEQKDHGFEVASTSPEDESPGSNPEPDATPFQEGLRTFDQLDAISSLPTPSDIFVSYSTFPGFVSWRDPKSGSWYVETLDDIFEQWAHSEDLQSLLLRVANAVSVKGIYKQMPGCWNFLRKKLFFKTSASRA | lowered basal activity; also recorded: Decreased | –
3 | F404A: modified iCasp9, F404A (protein, UniProt P55211 1-416, looked up, variant F404A, FKBP12-F36V fusion (iCasp9), CARD deleted) MDEADRRLLRRCRLRLVEELQVDQLWDALLSRELFRPHMIEDIQRAGSGSRRDQARQLIIDLETRGSQALPLFISCLEDTGQDMLASFLRTNRQAAKLSKPTLENLTPVVLRPEIRKPEVLRPETPRPVDIGSGGFGDVGALESLRGNADLAYILSMEPCGHCLIINNVNFCRESGLRTRTGSNIDCEKLRRRFSSLHFMVEVKGDLTAKKMVLALLELAQQDHGALDCCVVVILSHGCQASHLQFPGAVYGTDGCPVSVEKIVNIFNGTSCPSLGGKPKLFFIQACGGEQKDHGFEVASTSPEDESPGSNPEPDATPFQEGLRTFDQLDAISSLPTPSDIFVSYSTFPGFVSWRDPKSGSWYVETLDDIFEQWAHSEDLQSLLLRVANAVSVKGIYKQMPGCANFLRKKLFFKTS | lowered basal activity and dead | –
4 | N405A: modified iCasp9, N405A (protein, UniProt P55211 1-416, looked up, variant N405A, FKBP12-F36V fusion (iCasp9), CARD deleted) MDEADRRLLRRCRLRLVEELQVDQLWDALLSRELFRPHMIEDIQRAGSGSRRDQARQLIIDLETRGSQALPLFISCLEDTGQDMLASFLRTNRQAAKLSKPTLENLTPVVLRPEIRKPEVLRPETPRPVDIGSGGFGDVGALESLRGNADLAYILSMEPCGHCLIINNVNFCRESGLRTRTGSNIDCEKLRRRFSSLHFMVEVKGDLTAKKMVLALLELAQQDHGALDCCVVVILSHGCQASHLQFPGAVYGTDGCPVSVEKIVNIFNGTSCPSLGGKPKLFFIQACGGEQKDHGFEVASTSPEDESPGSNPEPDATPFQEGLRTFDQLDAISSLPTPSDIFVSYSTFPGFVSWRDPKSGSWYVETLDDIFEQWAHSEDLQSLLLRVANAVSVKGIYKQMPGCFAFLRKKLFFKTS | no effect | –
5 | N405T: modified iCasp9, N405T (protein, UniProt P55211 1-416, looked up, variant N405T, FKBP12-F36V fusion (iCasp9), CARD deleted) MDEADRRLLRRCRLRLVEELQVDQLWDALLSRELFRPHMIEDIQRAGSGSRRDQARQLIIDLETRGSQALPLFISCLEDTGQDMLASFLRTNRQAAKLSKPTLENLTPVVLRPEIRKPEVLRPETPRPVDIGSGGFGDVGALESLRGNADLAYILSMEPCGHCLIINNVNFCRESGLRTRTGSNIDCEKLRRRFSSLHFMVEVKGDLTAKKMVLALLELAQQDHGALDCCVVVILSHGCQASHLQFPGAVYGTDGCPVSVEKIVNIFNGTSCPSLGGKPKLFFIQACGGEQKDHGFEVASTSPEDESPGSNPEPDATPFQEGLRTFDQLDAISSLPTPSDIFVSYSTFPGFVSWRDPKSGSWYVETLDDIFEQWAHSEDLQSLLLRVANAVSVKGIYKQMPGCFTFLRKKLFFKTS | increased basal activity | –
6 | F406A: modified iCasp9, F406A (protein, UniProt P55211 1-416, looked up, variant F406A, FKBP12-F36V fusion (iCasp9), CARD deleted) MDEADRRLLRRCRLRLVEELQVDQLWDALLSRELFRPHMIEDIQRAGSGSRRDQARQLIIDLETRGSQALPLFISCLEDTGQDMLASFLRTNRQAAKLSKPTLENLTPVVLRPEIRKPEVLRPETPRPVDIGSGGFGDVGALESLRGNADLAYILSMEPCGHCLIINNVNFCRESGLRTRTGSNIDCEKLRRRFSSLHFMVEVKGDLTAKKMVLALLELAQQDHGALDCCVVVILSHGCQASHLQFPGAVYGTDGCPVSVEKIVNIFNGTSCPSLGGKPKLFFIQACGGEQKDHGFEVASTSPEDESPGSNPEPDATPFQEGLRTFDQLDAISSLPTPSDIFVSYSTFPGFVSWRDPKSGSWYVETLDDIFEQWAHSEDLQSLLLRVANAVSVKGIYKQMPGCFNALRKKLFFKTS | lowered basal activity; also recorded: Decreased | –
7 | F406W: modified iCasp9, F406W (protein, UniProt P55211 1-416, looked up, variant F406W, FKBP12-F36V fusion (iCasp9), CARD deleted) MDEADRRLLRRCRLRLVEELQVDQLWDALLSRELFRPHMIEDIQRAGSGSRRDQARQLIIDLETRGSQALPLFISCLEDTGQDMLASFLRTNRQAAKLSKPTLENLTPVVLRPEIRKPEVLRPETPRPVDIGSGGFGDVGALESLRGNADLAYILSMEPCGHCLIINNVNFCRESGLRTRTGSNIDCEKLRRRFSSLHFMVEVKGDLTAKKMVLALLELAQQDHGALDCCVVVILSHGCQASHLQFPGAVYGTDGCPVSVEKIVNIFNGTSCPSLGGKPKLFFIQACGGEQKDHGFEVASTSPEDESPGSNPEPDATPFQEGLRTFDQLDAISSLPTPSDIFVSYSTFPGFVSWRDPKSGSWYVETLDDIFEQWAHSEDLQSLLLRVANAVSVKGIYKQMPGCFNWLRKKLFFKTS | lowered basal activity; also recorded: Decreased | –
8 | F406T: modified iCasp9, F406T (protein) VDGFGDVGALESLRGNADLAYILSMEPCGHCLIINNVNFCRESGLRTRTGSNIDCEKLRRRFSSLHFMVEVKGDLTAKKMVLALLELARQDHGALDCCVVVILSHGCQASHLQFPGAVYGTDGCPVSVEKIVNIFNGTSCPSLGGKPKLFFIQACGGEQKDHGFEVASTSPEDESPGSNPEPDATPFQEGLRTFDQLDAISSLPTPSDIFVSYSTFPGFVSWRDPKSGSWYVETLDDIFEQWAHSEDLQSLLLRVANAVSVKGIYKQMPGCFNTLRKKLFFKTSASRA | lowered basal activity; also recorded: Decreased | –
9 | F406L: modified iCasp9, F406L (protein) VDGFGDVGALESLRGNADLAYILSMEPCGHCLIINNVNFCRESGLRTRTGSNIDCEKLRRRFSSLHFMVEVKGDLTAKKMVLALLELARQDHGALDCCVVVILSHGCQASHLQFPGAVYGTDGCPVSVEKIVNIFNGTSCPSLGGKPKLFFIQACGGEQKDHGFEVASTSPEDESPGSNPEPDATPFQEGLRTFDQLDAISSLPTPSDIFVSYSTFPGFVSWRDPKSGSWYVETLDDIFEQWAHSEDLQSLLLRVANAVSVKGIYKQMPGCFNLLRKKLFFKTSASRA | lowered basal activity and dead | –
